Assay results taken from patent US20180334493A1 (Takeda / Millennium, published 2018).

Target: T1, C1 esterase (UniProt P09871 16-688, limits assumed)
T1 sequence (looked up): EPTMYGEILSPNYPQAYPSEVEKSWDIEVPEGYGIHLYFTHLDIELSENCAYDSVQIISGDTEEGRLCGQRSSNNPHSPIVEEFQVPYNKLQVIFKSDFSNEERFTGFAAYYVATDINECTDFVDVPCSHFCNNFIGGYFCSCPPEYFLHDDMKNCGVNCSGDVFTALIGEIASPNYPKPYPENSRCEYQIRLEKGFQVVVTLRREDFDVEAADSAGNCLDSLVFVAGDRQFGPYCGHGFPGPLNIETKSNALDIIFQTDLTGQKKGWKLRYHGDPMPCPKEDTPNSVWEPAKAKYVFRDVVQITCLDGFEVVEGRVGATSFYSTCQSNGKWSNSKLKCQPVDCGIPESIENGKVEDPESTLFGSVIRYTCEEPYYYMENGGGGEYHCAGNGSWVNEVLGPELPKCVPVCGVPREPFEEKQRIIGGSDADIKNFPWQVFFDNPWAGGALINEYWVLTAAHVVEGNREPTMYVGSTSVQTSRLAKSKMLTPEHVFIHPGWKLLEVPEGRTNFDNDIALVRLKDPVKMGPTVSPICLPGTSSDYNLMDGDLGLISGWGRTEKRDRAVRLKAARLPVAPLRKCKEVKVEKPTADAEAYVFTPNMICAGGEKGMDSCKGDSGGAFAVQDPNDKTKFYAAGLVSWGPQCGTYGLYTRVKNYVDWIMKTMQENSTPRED
Assay: cell-based or functional assay

potency relative to the initial development reference standard: 121%
B1: recombinant human C1 esterase inhibitor (rhC1-INH) (other)
chain: NPNATSSSSQDPESLQDRGEGKVATTVISKMLFVEPILEVSSLPTTNSTTNSATKITANTTDEPTTQPTTEPTTQPTIQPTQPTTQLPTDSPTQPTTGSFCPGPVTLCSDLESHSTEAVLGDALVDFSLKLYHAFSAMKKVETNMAFSPFSIASLLTQVLLGAGQNTKTNLESILSYPKDFTCVHQALKGFTTKGVTSVSQIFHSPDLAIRDTFVNASRTLYSSSPRVLSNNSDANLELINTWVAKNTNNKISRLLDSLPSDTRLVLLNAIYLSAKWKTTFDPKKTRMEPFHFKNSVIKVPMMNSKKYPVAHFIDQTLKAKVGQLQLSHNLSLVILVPQNLKHRLEDMEQALSPSVFKAIMEKLEMSKFQPTLLTLPRIKVTTSQDMLSIMEKLEFFDFSYDLNLCGLTEDPDLQVSAMQHQTVLELTETGVEAAAASAISVARTLLVFEVQQPFLFVLWDQQHKFPVFMGRVYDPRA
modifications: heavily N- and O-glycosylated, sialylated (CHO-expressed)
